Experimental findings from PMC12624790 are described below.

The assay deals with His6-3C-SUMO-Sec22 TMD-thrombin-HiBiT.

B1: Δ1-32 Msp1 (enzyme)
chain: DVESGPLSGKSRESKAKQSLQWEKLVKRSPALAEVTLDAYERTILSSIVTPDEINITFQDIGGLDPLISDLHESVIYPLMMPEVYSNSPLLQAPSGVLLYGPPGCGKTMLAKALAKESGANFISIRMSSIMDKWYGESNKIVDAMFSLANKLQPCIIFIDEIDSFLRERSSTDHEVTATLKAEFMTLWDGLLNNGRVMIIGATNRINDIDDAFLRRLPKRFLVSLPGSDQRYKILSVLLKDTKLDEDEFDLQLIADNTKGFSGSDLKELCREAALDAAKEYIKQKRQLIDSGTIDVNDTSSLKIRPLKTKDFTKKLRMDATSTLSSQPLD
B1: the percent of substrate extracted from standard liposomes by Msp1 with ATP (split-luciferase extraction assay, 30 min, 30 °C) came to 10%.
